Experimental findings from the DeepSol protein solubility set are described below.

The data set in a line: soluble on expression in E. coli; label from the status in PepcDB or PDB records.
With “MAHHHHHHMVENELLYENDVSNSGLDGKPRLHSFFNKDGLLLRTYSWTVKKAIGIFLLIHGLNGHVRLQYLRQNVEVISNDKAILKDQDNYYVYKDSWIEKLNDKGYSVYGIDLQGHGLSEGWENLKANINNFDDLVYDVIQYLEEINRTVCLDYERNKYLRAIREKNTDMKALKKDKIPIYIMGLSMGGNVVLRTLELLGKSGDYKNLNIKGCISLSGMICLEELSSKASMKYKYFLVPFSKFISYIFPKCRINQNFNFEMFPFVNDIINFDKHRSKKWITFKFGHQILRSITNLRKDIQYIPKDIPILFVHSIHDCACYYGGVVTFYDQLDNDKKELYTIYDMDHLLTMEPGNEKVLEKVLDWISGSFNNKRRRRRTSS”, the “soluble on expression in E. coli” value was “not soluble”.

For the sequence “MKPKSGAVRRLEKNTMNFVLSDVADAEAEKAIRDPLVAYNLARFGESDKRDLNITIRNDDNSVTGGLVGHTARGWLYVQLLFVPEAMRGQGIAPKLLAMAEEEARKRGCMGAYIDTMNPDALRTYERYGFTKIGSLGPLSSGQSITWLEKRF”, the “soluble on expression in E. coli” value is “soluble”.

“MTKKVGIVDTTFARVDMASIAIKKLKELSPNIKIIRKTVPGIKDLPVACKKLLEEEGCDIVMALGMPGKAEKDKVCAHEASLGLMLAQLMTNKHIIEVFVHEDEAKDDKELDWLAKRRAEEHAENVYYLLFKPEYLTRMAGKGLRQGFEDAGPARE”: the “soluble on expression in E. coli” value is reported as “soluble”.

For “GMQKLTRINDFNEVLNSRKSVKVFDENYKIPREEMDEIITKATKAPSSVNMQPWRIAVVQSDEMKEKVKESFGFNSRQLTTSSAMLIIFGDLQNYEKAEQIYGDAVEQQLMTEDIKAQLLDWILPYYKNLSREGMKDIVNIDSSLMAMQLMLTAKAHGYDTNPIGGFDKENIADIIGYDSDRYVPVLAIAIGKKAQDAHDSVRLPIDDVREFL”, the “soluble on expression in E. coli” value is given as “soluble”.

As for “MGSDKIHHHHHHAACSNDEKITESTPKTVALTVKLPEFGGASSRAIDPETTTGNKVTINGPVKIIARVSQGGAITNTISENITAGSMSTITVSGAAQWIEVEANGDNSTETDNVNTRQGSATSSKVRLFGGATINPGSGGNATCTPTISPDMARVEVKGSLGTSWTHLTDLKVKGIYINNIKLTRGVSSLTRIASAAWNTEYAPSGKFEKMFNDNLGGVGAGAGVAQITPGQADGYNFFPQKDNTLPLPTTKEDVMKNSIHIIMEVEFTRADGVPVVGPQWLNVVALKDNTATNYITDFEAGNVYSIDLADIKDIMDVPVPPVTPNPDPETVSVDLTVSIGQWTVVQVKPEV”, the “soluble on expression in E. coli” value is “not soluble”.

Turning to “WVPHELTENQKNRRFEVSSSLILRNHNEPFLDRIVTCDEKWILYDNRRRSAQWLDQEEAPKHFPKPILHPKKVMVTIWWSAAGLIHYSFLNPGETITSEKYAQEIDEMNQKLQRLQLALVNRKGPILLHDNARPHVAQPTLQKLNELGYEVLPHPPYSPDLLPTNYHVFKHLNNFLQGKRFHNQQDAENAFQEFVESQSTDFYATGINQLISRWQKCVDCNGSYFD”, the “soluble on expression in E. coli” value is on record as “soluble”.

Consider “MSFILPSESIDGTHPCNGLHMNGQDSLVQPLLTDFYQITMCYAYWKTGTHNEPAVFDVFFRKNPFQGEFTVFAGLEDCLRFVENFKFSQSDIDYVKKILPENAEPEFYEYLETLNGSHLTIEAVAEGSVVFPKVPLLTINGPLAMCQLIETSILNLVNYASLVATNAARFRQASGWKIQLLEFGLRRAQGPNGGLTASKYCYIGGFDATSNVLAGKLYGIPVKGTQAHSFICSFSSPAELKVRLLNHKITNEKADLFQISMEKRAWLLDQFSWKAALSEVSDGELSAFVAYAIAFPDTFLALIDTYDVIRSGVVNFVAVSLALHDLGYRSMGCRIDSGDLSYLSKELRECFVKVSTLKGEYKFFEKMSIVASNDINEETIMSLNDQQHEINAFGVGTHLVTCQKQPALGCVYKLVAQSAQPKIKLSQDVTKITIPGKKKCYRIFGKNGYAILDLMMLEDEPEPQPNQQILCRHPFEVESKRALVNANKIIKLHNVYWKDGEMITPLPTLNEIKEHVNESIRSTLRQDHRRYLNPTPYKVSVSERLYQFLHTLWLQNAPIGQLE”, for which the “soluble on expression in E. coli” value was “soluble”.

As to “MGMVSDAVIRHQGKVIAVYPDGILPLEPPRQNASQLYLTSGMDERKRKLIDLGEAFVILAGGFGTMEESFQLLTEMSINQTAVRPVIFVGRKFYQPLFDLLRLQLKEGMISKEVIDAISLVDTAEETIELLGDLKLEQVVLEHHHHHH”, the “soluble on expression in E. coli” value is given as “not soluble”.

Turning to “MIRGWLAEGERMKETSYYSYVVGELPKGCQYCVRGEKLVLFVTGVCPRNCFYCPLSPWRRKDVAYANERPIRKIEDIIEEAKIQEARGAGVTGGDPLARLNRTVEYIRTLKEEFGKKFHIHLYTTGILADKRALSMLYDAGLDEIRFHPDLFEPSSKFLNREIENLKNAFDFDWDVGGEVPAVPGFGDRIKWFAEILDKFGGKFLNINELEYSETNLSNILNRGFKLAGENSFAIKGSLELGLEILEWGEKNTSLYYHLCTAKLKDAVQLRNRLRRMAKNVAKPYMEITEDGTLRFGIAEYEDLEELYKFLVEEAEVPKEWLYINWEKKRIEMPVEVAEELAEAIEGDVKFYIVEEYPTWDRIEVERIPLN”, the “soluble on expression in E. coli” value was “not soluble”.

On to “MGSDKIHHHHHHMTSSAPLIDFAHDLRYEDIPVHVRSIVREQIIATVGSILGGAQLPVAKSFEQSILATFGRGESSAFGAGTGMSAASAALYNSGLAQLLDWEDWVLISHVGAAVVPVAWALAEERGLRLNDVIVAVTIGNEIAGRTSRAIQRGAYLGNGLPNHQIELPLVAGRLLGLDRRQLGYALGHSCYMAMENCPVGWTTDSKLLVNGLPAMWAIASANMARQDIVGRGDIVEHPAGYLATVSESIDFKELTRDIGVKWYTETLSTKKHAGCAYNLPAAECAMSIREEIAPEDVERIVVECSTATLYVGGRYDDFEPGVLDAYEQGLLTHVGLCFDTKFCVAAAYVHGDLIHEQYLVENATDARVKALYGKISLVPSERLQKAQFQDFKYGATVTVHGRDGRTATRTVEQMLGGYDRPFDHATKLADGARGLLPPEAVDGIVARLRDETGNPLASEISTLINGAP”, for which the “soluble on expression in E. coli” value is given as “not soluble”.

As for “MDRVIAAQVYLRICELGSLSAAARALGMSRPMVSRYLEQMESWAGARLIHRSTRRLTLTPAGEKVLLKTRGLTRIADEIAGERQRADPSGTLRVACAHFTAMQLISPLLPDFLARYPLLRLELDINNHPVSLIGERIDVAIRITDNPEAGAIARRLGVCRSLLCAAPGWMRQHGPLTTPDDLQRHNCLLYSHFASQHWQFSDAQGREASVAVNGNLSAGISSLLLEAAVAGCGIAMLPELEARGAIASGTLEVVLPEWTPKALSVYGIYLSRDYQPDGLPLFLDALQRRLGEETGHG”, the “soluble on expression in E. coli” value is “not soluble”.

On to “MGSDKIHHHHHHMTSPVENVKKKPRPLALSPSRAGDYQQCPLLYRFRAIDRLPEPKTVAQVKGTLVHAVLEYMHKLPREEREYPAMVKQLKPTWAQMCEEDAELKELVPEDELYDFLVDSRTLLRGYFEMENPQGFDATECEMYVDTVLPNGVPVRGFIDRVDTAPTGQVRVIDYKTGKKPKPQWSQQAQFQMLFYALVYWRMFNEIPAQLRLMYLKVNDSMFLNPSREQLEFFERDLGDLWAKIEMDGKAGHFRTKTSKLCGWCPHQSLCPEYGGVPPEYPGWPGSTAD”, for which the “soluble on expression in E. coli” value was “not soluble”.

“MSLSTSSKVVRLDVSRSQQEAVKGVKLPALLIKLRDRCGEHNRKLLDRLFEQVDDSFFDLADKSATNSEQALFFDAMREIRLKKERIAALFMQYYNRDFQFLEVQKPGMLKANFDPQNLTLVQEDKLEEQVAIDNMVNRFKSEIGRDLEHLTIRLDSLLFDVSVEEENNPLGPLRMVTNFVTACAELELGIRAKLVFFKLFEKHVLTQNKAVLEAANKFLAEQGVMPDLSASRSVRRTGVNLPHASGSVIDQNTGAVGDYNEGGWDPQIDPLQYMRQFSDAQMAGAAGAAVNLPVVQQTALLNLLSRLQTTNKAPATALSDNGLINFMGLMERAVLSKEGQPRASVGRLDQDVMNLVTMLFEFILDDRQLPAAIRAVIARLQIPILKVALLDRTFFNQGGHSARRLLNEMATASIGWTEKAPGEPDAFLAKLEEVVQRLVTEFDNDITIFDEVLEDFIRFRESDKKRRHLLEQRTRDAEVGRAKSDAAKKVVQDVLNDMLAGKNIPALVMEVLKEGWSNYMVLLQLKSGREHPDWLQAQSVAARLIQGCDPDDTSGEAPEVAAVEKLMEELRVGLQQTAYKPFELDKTLRQLQKVLSETTQQRLAKEVTLDDEGHHHHHH”: the “soluble on expression in E. coli” value was “soluble”.

“MVGINNWSSNLDAYRILQEAQSLTEEPPHFDTAFPIEPESIAPPEHHNHRYVIGQEEHRVRRLAANRNKGRPSARAFGNARNNSTRN”: the “soluble on expression in E. coli” value is given as “not soluble”.

With “MGSDKIHHHHHHMMAMITDPDDFFTKGCGRCARFDTPDCSTRPWIDGLNALRRICFSMGLEETAKWAHPCYMHAGRNIALLGAFRSDFLISFLNAGLLVDKAGVLKTPGPNSQTPSVIRFTTVAEVEALEPTIRAYLRQLMDHAVAGTQPPKMAREIDLPDELVDALDADPVLAEAYHALTPGRQRSYLFALSQAKQSATRVARIEKFRDKIIAGKGALER”, the “soluble on expression in E. coli” value is “not soluble”.

“MGSDKIHHHHHHMKTAEPQTIDDLERWIKSRGITEVECLVPDLSGIPRGKILPARKFLSCLRDRGLRLPESVFTQTVTGEYPEDDPVDIADSDVYLRPDPRTIRVVPWYEEPTAQVINDCFHRDRSEVHCAPRQVLRNILALYEKQGWKPVVAPELEFYLVRINADPDYPLEPPIGRSGRAETGRQAYGIDAVNEFDPLFEDIYDYAEEQNLDLDTLHHESGSAQMEINFLHGDPMELADQVFLFKRTVRQAALRHNVYATFMAKPLAGQPGSAMHLHQSITDAESGRNILVKKNGEDSDLFRWHIGGLQKYLPHCMLMLAPNVNSYRRFLPDQSAPINMHWGHDNRTVSLRVPYADASARRVENRLSGADANPYLAIAASLACGYLGMIEKIEPTAPITGSAYTRAHNLPRHLPDAIERFERARPLHELLNADFVRVYASVKWAEWDAYQHVISSWEREYLLLNV”: the “soluble on expression in E. coli” value is listed as “not soluble”.

As for “MGSDKIHHHHHHENLYFQGLLPKYNILTEDQVQKIHENTMKILEEIGIEFEYEPALEVFRREGQKVEGKRVYLTREFVESKLKSAPAEFTLHARNPENNVVIGGDNIVFMPGYGAPFIYELDGSRRKTTLQDYENFAKLAGASKNMHLSGGTMAEPQDIPDGVRHLQMLYSSIKNSDKCFMGSAEGKERAEDSVEIAAILFGGKDVIKEKPVLVSLINSLTPLKYDERMLGALMAYAEAGQAVIIASLVMAGSTGPASLAGTLSLQNAEVLAGISLAQSINPGTPVIYGSTSALSDMRSGSLSIGSPECALFISASAQLARFYGVPSRSGGGLNDSKTVDAQAGYESMMTLMAANLTGVNFVLHTAGILQYFMAMSYEKFIMDDEIAGMLLHYMKGYTFDEDGMAFDVIEKVGPGGHFLTQKHTRKNHKREFYTPTLSDRSAYDTWAKEKLETKQRAHARWQQILANYVPPALDPEIDAKLQAFIAQRGKEVGEE”, the “soluble on expression in E. coli” value is listed as “soluble”.

As to “MGSDKIHHHHHHAEVADSIEGGNGEAPLEVRAVTGAEVDTRAPAAVEMTEGTLGIFRLAEADYTALDNIRYDRVPGGNWHPVSTVIYVGGTYARLCAYAPYNSVEFKNSSLKTEAGLTMQTYAVEKDMRFAVSGGDEVWKKTPTANFELKRAYARLVLSVVRDATYPNTCKITQAKIKASTGNIITANTVDISTGTEGSGTQTPQYTHTVTTGLKDGFEIGVTDDTSFDWLLPQQTFSGGVVLTLTVDGMDYSVTIPVDKLSTFVRGTKYTVSLVVKGGKLTLMSDKILIDRDWTEVQTGTGGSGSDYDTSFN”, the “soluble on expression in E. coli” value was “not soluble”.

For the sequence “MQVDDWIVGLEVEIFTFDGKEYRGIVYTYDADANCVVLARKSQDSLKSDLRILKASLVKNINVLGRSNVDQLPQQLSPLNLEALKMREEQALQKARKDLARTGVGVSQQAQEIFDALCKTLPCQWEEDSIVIFENIKLKKPYRVEDLEGSEIEAVNRVKVVLENELQKLQRRNT”, the “soluble on expression in E. coli” value is on record as “soluble”.
